These results are taken from publication PMC8761896 (2021).

Assay [1] deals with eOD-GT6. As to the kind of experiment: SPR. (Surface plasmon resonance follows binding to a sensor surface in real time, without labels.)
For assay [2], the target named is eOD-GT6. As to the kind of experiment: SPR. The source holds these as a separate data set.

B1: VRC01gl Fab with comL ('VQ' insertion at 103aL and 103bL, L104VL, E105DL) (Fab, V domains shown)
VH: not shown
VL: EIVLTQSPATLSLSPGERATLSCRASQSVSSYLAWYQQKPGQAPRLLIYDASNRATGIPARFSGSGSGTDFTLTISSLEPEDFAVYYCQQYEFFGQGTKVQVDI
Take B1: in the assay with eOD-GT6 [1], the equilibrium dissociation constant (Kd) (usually the equilibrium constant for the complex coming apart) was determined as 16.4 nM. In addition, in the assay with eOD-GT6 [2], the koff (usually a measure of how fast the partners let go of each other) came out at 0.000642 s⁻¹.

B2: germline reverted VRC01 (VRC01gl) Fab (Fab, V domains shown)
VH: not shown
VL: EIVLTQSPATLSLSPGERATLSCRASQSVSSYLAWYQQKPGQAPRLLIYDASNRATGIPARFSGSGSGTDFTLTISSLEPEDFAVYYCQQYEFFGQGTKLEIK
The molecule B2 had a Kd with eOD-GT6 [1] of 16.2 nM. In the assay with eOD-GT6 [2], the koff was found to be 0.00073 s⁻¹.
